Experimental data published in US7432093B2, “Soluble, functional apoptotic protease-activating factor 1 fragments” (The Trustees of Princeton University, priority 2004, dated 2008).

Type: physicochemical, E. coli
Description: Preferably, solubility of the fragment is assessed in a lysate of a bacterial culture used to produce the fragment at a concentration of at least 1 milligram per liter of bacterial culture.
All constructs for protein expression were generated using a standard PCR-based cloning strategy, and the identity of individual clones was verified by double-stranded plasmid sequencing. A soluble Apaf-1 fragment (residues 1-591, sequence (SEQ ID NO: 1) shown in FIG. 1) was over-expressed in Escherichia coli strain BL21(DE3) using plasmid vector pET29 having the nucleotide sequence described by Jiang et al. (2000, J. Biol. Chem. 275:31199-31203) operatively ligated therein. The coding sequence included an additional sequence encoding eight amino acid residues at its carboxy-terminal end (i.e., linked to residue 591 in the translated protein). These residues (Leu-Glu-His6) included a nickel-binding hexa-histidine sequence used for metal affinity chromatographic purification of the expressed protein. Soluble Apaf-1 was purified from the cell lysate using a Ni-NTA (nitrilotriacetic acid-ligated nickel; Qiagen) chromatography column. Dithiothreitol (DTT) and ethylenediamine tetraacetic acid (EDTA) were added to the eluted fraction in final concentrations of 5 millimolar each. After incubation for 30 minutes on ice, the protein solution was applied to an anion-exchange column (Source-15Q, Pharmacia) for further purification.

Molecule	solubility and solution behavior (in words)	Solubility
1-286: recombinant Apaf-1 fragment, residues 1-286 of SEQ ID NO: 1 (protein, listed as Homo sapiens) MDAKARNCLLQHREALEKDIKTSYIMDHMISDGFLTISEEEKVRNEPTQQQRAAMLIKMILKKDNDSYVSFYNALLHEGYKDLAALLHDGIPVVSSSSGKDSVSGITSYVRTVLCEGGVPQRPVVFVTRKKLVNAIQQKLSKLKGEPGWVTIHGMAGCGKSVLAAEAVRDHSLLEGCFPGGVHWVSVGKQDKSGLLMKLQNLCTRLDQDESFSQRLPLNIEEAKDRLRILMLRKHPRSLLILDDVWDSWVLKAFDSQCQILLTTRDKSVTDSVMGPKYVVPVESSL	largely insoluble	
1-567: recombinant Apaf-1 fragment, residues 1-567 of SEQ ID NO: 1 (protein, listed as Homo sapiens) MDAKARNCLLQHREALEKDIKTSYIMDHMISDGFLTISEEEKVRNEPTQQQRAAMLIKMILKKDNDSYVSFYNALLHEGYKDLAALLHDGIPVVSSSSGKDSVSGITSYVRTVLCEGGVPQRPVVFVTRKKLVNAIQQKLSKLKGEPGWVTIHGMAGCGKSVLAAEAVRDHSLLEGCFPGGVHWVSVGKQDKSGLLMKLQNLCTRLDQDESFSQRLPLNIEEAKDRLRILMLRKHPRSLLILDDVWDSWVLKAFDSQCQILLTTRDKSVTDSVMGPKYVVPVESSLGKEKGLEILSLFVNMKKADLPEQAHSIIKECKGSPLVVSLIGALLRDFPNRWEYYLKQLQNKQFKRIRKSSSYDYEALDEAMSISVEMLREDIKDYYTDLSILQKDVKVPTKVLCILWDMETEEVEDILQEFVNKSLLFCDRNGKSFRYYLHDLQVDFLTEKNCSQLQDLHKKIITQFQRYHQPHTLSPDQEDCMYWYNFLAYHMASAKMHKELCALMFSLDWIKAKTELVGPAHLIHEFVEYRHILDEKDCAVSENFQEFLSLNGHLLGRQPFPNIVQLG	good solubility and solution behavior	+++
1-611: recombinant Apaf-1 protein, residues 1-611 (protein, UniProt O14727 1-611, looked up, fragment) MDAKARNCLLQHREALEKDIKTSYIMDHMISDGFLTISEEEKVRNEPTQQQRAAMLIKMILKKDNDSYVSFYNALLHEGYKDLAALLHDGIPVVSSSSGKDSVSGITSYVRTVLCEGGVPQRPVVFVTRKKLVNAIQQKLSKLKGEPGWVTIHGMAGCGKSVLAAEAVRDHSLLEGCFPGGVHWVSVGKQDKSGLLMKLQNLCTRLDQDESFSQRLPLNIEEAKDRLRILMLRKHPRSLLILDDVWDSWVLKAFDSQCQILLTTRDKSVTDSVMGPKYVVPVESSLGKEKGLEILSLFVNMKKADLPEQAHSIIKECKGSPLVVSLIGALLRDFPNRWEYYLKQLQNKQFKRIRKSSSYDYEALDEAMSISVEMLREDIKDYYTDLSILQKDVKVPTKVLCILWDMETEEVEDILQEFVNKSLLFCDRNGKSFRYYLHDLQVDFLTEKNCSQLQDLHKKIITQFQRYHQPHTLSPDQEDCMYWYNFLAYHMASAKMHKELCALMFSLDWIKAKTELVGPAHLIHEFVEYRHILDEKDCAVSENFQEFLSLNGHLLGRQPFPNIVQLGLCEPETSEVYQQAKLQAKQEVDNGMLYLEWINKKNITNLSRLVV	good solubility and solution behavior	
1-570: recombinant Apaf-1 fragment, residues 1-570 of SEQ ID NO: 1 (protein, listed as Homo sapiens) MDAKARNCLLQHREALEKDIKTSYIMDHMISDGFLTISEEEKVRNEPTQQQRAAMLIKMILKKDNDSYVSFYNALLHEGYKDLAALLHDGIPVVSSSSGKDSVSGITSYVRTVLCEGGVPQRPVVFVTRKKLVNAIQQKLSKLKGEPGWVTIHGMAGCGKSVLAAEAVRDHSLLEGCFPGGVHWVSVGKQDKSGLLMKLQNLCTRLDQDESFSQRLPLNIEEAKDRLRILMLRKHPRSLLILDDVWDSWVLKAFDSQCQILLTTRDKSVTDSVMGPKYVVPVESSLGKEKGLEILSLFVNMKKADLPEQAHSIIKECKGSPLVVSLIGALLRDFPNRWEYYLKQLQNKQFKRIRKSSSYDYEALDEAMSISVEMLREDIKDYYTDLSILQKDVKVPTKVLCILWDMETEEVEDILQEFVNKSLLFCDRNGKSFRYYLHDLQVDFLTEKNCSQLQDLHKKIITQFQRYHQPHTLSPDQEDCMYWYNFLAYHMASAKMHKELCALMFSLDWIKAKTELVGPAHLIHEFVEYRHILDEKDCAVSENFQEFLSLNGHLLGRQPFPNIVQLGLCE	good solubility and solution behavior	+++
1-349: recombinant Apaf-1 fragment, residues 1-349 of SEQ ID NO: 1 (protein, listed as Homo sapiens) MDAKARNCLLQHREALEKDIKTSYIMDHMISDGFLTISEEEKVRNEPTQQQRAAMLIKMILKKDNDSYVSFYNALLHEGYKDLAALLHDGIPVVSSSSGKDSVSGITSYVRTVLCEGGVPQRPVVFVTRKKLVNAIQQKLSKLKGEPGWVTIHGMAGCGKSVLAAEAVRDHSLLEGCFPGGVHWVSVGKQDKSGLLMKLQNLCTRLDQDESFSQRLPLNIEEAKDRLRILMLRKHPRSLLILDDVWDSWVLKAFDSQCQILLTTRDKSVTDSVMGPKYVVPVESSLGKEKGLEILSLFVNMKKADLPEQAHSIIKECKGSPLVVSLIGALLRDFPNRWEYYLKQLQNKQ	soluble to significant extent	++
1-554: recombinant Apaf-1 fragment, residues 1-554 of SEQ ID NO: 1 (protein, listed as Homo sapiens) MDAKARNCLLQHREALEKDIKTSYIMDHMISDGFLTISEEEKVRNEPTQQQRAAMLIKMILKKDNDSYVSFYNALLHEGYKDLAALLHDGIPVVSSSSGKDSVSGITSYVRTVLCEGGVPQRPVVFVTRKKLVNAIQQKLSKLKGEPGWVTIHGMAGCGKSVLAAEAVRDHSLLEGCFPGGVHWVSVGKQDKSGLLMKLQNLCTRLDQDESFSQRLPLNIEEAKDRLRILMLRKHPRSLLILDDVWDSWVLKAFDSQCQILLTTRDKSVTDSVMGPKYVVPVESSLGKEKGLEILSLFVNMKKADLPEQAHSIIKECKGSPLVVSLIGALLRDFPNRWEYYLKQLQNKQFKRIRKSSSYDYEALDEAMSISVEMLREDIKDYYTDLSILQKDVKVPTKVLCILWDMETEEVEDILQEFVNKSLLFCDRNGKSFRYYLHDLQVDFLTEKNCSQLQDLHKKIITQFQRYHQPHTLSPDQEDCMYWYNFLAYHMASAKMHKELCALMFSLDWIKAKTELVGPAHLIHEFVEYRHILDEKDCAVSENFQEFLSLNGHL	good solubility and solution behavior	++
1-591 K160R: Apaf-1 fragment 1-591 of SEQ ID NO: 1 with K160R substitution (protein, listed as Homo sapiens) MDAKARNCLLQHREALEKDIKTSYIMDHMISDGFLTISEEEKVRNEPTQQQRAAMLIKMILKKDNDSYVSFYNALLHEGYKDLAALLHDGIPVVSSSSGKDSVSGITSYVRTVLCEGGVPQRPVVFVTRKKLVNAIQQKLSKLKGEPGWVTIHGMAGCGRSVLAAEAVRDHSLLEGCFPGGVHWVSVGKQDKSGLLMKLQNLCTRLDQDESFSQRLPLNIEEAKDRLRILMLRKHPRSLLILDDVWDSWVLKAFDSQCQILLTTRDKSVTDSVMGPKYVVPVESSLGKEKGLEILSLFVNMKKADLPEQAHSIIKECKGSPLVVSLIGALLRDFPNRWEYYLKQLQNKQFKRIRKSSSYDYEALDEAMSISVEMLREDIKDYYTDLSILQKDVKVPTKVLCILWDMETEEVEDILQEFVNKSLLFCDRNGKSFRYYLHDLQVDFLTEKNCSQLQDLHKKIITQFQRYHQPHTLSPDQEDCMYWYNFLAYHMASAKMHKELCALMFSLDWIKAKTELVGPAHLIHEFVEYRHILDEKDCAVSENFQEFLSLNGHLLGRQPFPNIVQLGLCEPETSEVYQQAKLQAKQEVDNG	without significant loss of activity or solubility	++
